Assay results as given in the supplement of paper PMC9112550, “Optimization of the antimicrobial peptide Bac7 by deep mutational scanning” (BMC Biology, 2022).

test system: Escherichia coli TOP10; experiment: shrunken log2 fold change of peptide-encoding DNA abundance (4.5 h post-induction vs induction); higher = less antimicrobial activity (less host growth inhibition); conditions: time post-induction: 4.5 h; library: site-saturation at positions 5, 18, 19, 20
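Also: peptides expressed intracellularly from a pBAD plasmid library in pooled LB shake-flask culture, induced with 0.3% L-arabinose, DNA abundance read by NGS, three biological replicates, DESeq2 with apeglm shrinkage.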

RRIRLRPPRLPRPRPRPPTAPRP and RRIRRRPPRLPRPRPRPQAVPRP are within 0.2 log units of each other in “shrunken log2 fold change” value: 0.228 for the first, 0.331 for the second.

Compared with RRIRWRPPRLPRPRPRPNWIPRP, RRIRNRPPRLPRPRPRPSSHPRP is lower in “shrunken log2 fold change” value: 0.149 for the first, -0.0939 for the second.

RRIRWRPPRLPRPRPRPCVHPRP and RRIRSRPPRLPRPRPRPSGQPRP are within 0.2 log units of each other in “shrunken log2 fold change” value: 0.0249 for the first, -0.0423 for the second.

Compared with RRIRERPPRLPRPRPRPKIVPRP, RRIRWRPPRLPRPRPRPRACPRP is higher in “shrunken log2 fold change” value: -0.0778 for the first, 0.468 for the second.

RRIRERPPRLPRPRPRPDCSPRP and RRIRDRPPRLPRPRPRPFERPRP are within 0.2 log units of each other in “shrunken log2 fold change” value: -0.148 for the first, -0.0141 for the second.

Going from RRIRNRPPRLPRPRPRPTAVPRP to RRIRARPPRLPRPRPRPCSRPRP, the “shrunken log2 fold change” value falls from 0.495 to 0.21.

Compared with RRIRGRPPRLPRPRPRPEPDPRP, RRIRFRPPRLPRPRPRPTMFPRP is lower in “shrunken log2 fold change” value: 1.27 for the first, -0.322 for the second.

RRIRERPPRLPRPRPRPIPMPRP and RRIRFRPPRLPRPRPRPTVFPRP are within 0.2 log units of each other in “shrunken log2 fold change” value: -0.136 for the first, -0.0947 for the second.

Going from RRIRPRPPRLPRPRPRPFHFPRP to RRIRNRPPRLPRPRPRPCCIPRP, the “shrunken log2 fold change” value rises from -0.339 to -0.00191.

RRIRNRPPRLPRPRPRPYNGPRP and RRIRIRPPRLPRPRPRPPFLPRP are within 0.2 log units of each other in “shrunken log2 fold change” value: 0.0167 for the first, -0.0978 for the second.

Compared with RRIRIRPPRLPRPRPRPYAMPRP, RRIRFRPPRLPRPRPRPPIKPRP is higher in “shrunken log2 fold change” value: -0.411 for the first, 0.0125 for the second.

Compared with RRIRCRPPRLPRPRPRPGCDPRP, RRIRTRPPRLPRPRPRPLYPPRP is lower in “shrunken log2 fold change” value: 0.258 for the first, -0.154 for the second.

First: RRIRERPPRLPRPRPRPMLMPRP
Second: RRIRCRPPRLPRPRPRPPLEPRP
The “shrunken log2 fold change” value of the first is lower: -0.142 for the first, 0.186 for the second.

First: RRIRQRPPRLPRPRPRPMWDPRP
Second: RRIRTRPPRLPRPRPRPTRMPRP
The “shrunken log2 fold change” value of the first is lower: -0.0352 for the first, 0.196 for the second.

Compared with RRIRHRPPRLPRPRPRPSWFPRP, RRIRMRPPRLPRPRPRPEFFPRP is higher in “shrunken log2 fold change” value: -0.408 for the first, 0.277 for the second.

Going from RRIRVRPPRLPRPRPRPADVPRP to RRIRLRPPRLPRPRPRPNYIPRP, the “shrunken log2 fold change” value falls from 0.000571 to -0.301.

RRIRFRPPRLPRPRPRPYSGPRP and RRIRFRPPRLPRPRPRPYSRPRP are within 0.2 log units of each other in “shrunken log2 fold change” value: -0.293 for the first, -0.187 for the second.

Compared with RRIRFRPPRLPRPRPRPDERPRP, RRIRARPPRLPRPRPRPVKMPRP is higher in “shrunken log2 fold change” value: -0.0426 for the first, 0.163 for the second.

First: RRIRSRPPRLPRPRPRPHVMPRP
Second: RRIRGRPPRLPRPRPRPVPRPRP
The “shrunken log2 fold change” value of the first is lower: -0.103 for the first, 0.806 for the second.

RRIRQRPPRLPRPRPRPHECPRP and RRIRHRPPRLPRPRPRPFRIPRP are within 0.2 log units of each other in “shrunken log2 fold change” value: -0.0866 for the first, -0.127 for the second.

Compared with RRIRQRPPRLPRPRPRPWRMPRP, RRIRLRPPRLPRPRPRPPFIPRP is lower in “shrunken log2 fold change” value: -0.421 for the first, -0.635 for the second.

First: RRIRNRPPRLPRPRPRPPRQPRP
Second: RRIRWRPPRLPRPRPRPNGEPRP
The “shrunken log2 fold change” value of the first is higher: 0.449 for the first, -0.0407 for the second.

Compared with RRIRDRPPRLPRPRPRPECGPRP, RRIRMRPPRLPRPRPRPKKSPRP is lower in “shrunken log2 fold change” value: 1.71 for the first, 1.18 for the second.

RRIRSRPPRLPRPRPRPSHCPRP and RRIRIRPPRLPRPRPRPRTPPRP are within 0.2 log units of each other in “shrunken log2 fold change” value: 0.079 for the first, 0.089 for the second.

First: RRIRQRPPRLPRPRPRPAPFPRP
Second: RRIRRRPPRLPRPRPRPKNMPRP
The “shrunken log2 fold change” value of the first is higher: 0.613 for the first, -0.00338 for the second.

RRIRIRPPRLPRPRPRPEDWPRP and RRIRMRPPRLPRPRPRPEDCPRP are within 0.2 log units of each other in “shrunken log2 fold change” value: 0.0775 for the first, 0.0737 for the second.

First: RRIRKRPPRLPRPRPRPDNEPRP
Second: RRIRLRPPRLPRPRPRPVMYPRP
The “shrunken log2 fold change” value of the first is higher: 0.665 for the first, -0.302 for the second.

Compared with RRIRPRPPRLPRPRPRPEGLPRP, RRIRMRPPRLPRPRPRPVHQPRP is lower in “shrunken log2 fold change” value: 0.491 for the first, -0.112 for the second.

First: RRIRQRPPRLPRPRPRPQTFPRP
Second: RRIRFRPPRLPRPRPRPAPTPRP
The “shrunken log2 fold change” value of the first is lower: 0.028 for the first, 0.912 for the second.

RRIRVRPPRLPRPRPRPKKAPRP and RRIRKRPPRLPRPRPRPNSVPRP are within 0.2 log units of each other in “shrunken log2 fold change” value: 0.157 for the first, 0.0305 for the second.

First: RRIRDRPPRLPRPRPRPTFDPRP
Second: RRIRNRPPRLPRPRPRPILAPRP
The “shrunken log2 fold change” value of the first is higher: 0.853 for the first, -0.264 for the second.

Compared with RRIRLRPPRLPRPRPRPHGPPRP, RRIRIRPPRLPRPRPRPHSSPRP is lower in “shrunken log2 fold change” value: 0.101 for the first, -0.448 for the second.

Going from RRIRFRPPRLPRPRPRPRDMPRP to RRIRHRPPRLPRPRPRPWRYPRP, the “shrunken log2 fold change” value falls from -0.128 to -0.49.

Compared with RRIRQRPPRLPRPRPRPYAHPRP, RRIRWRPPRLPRPRPRPMWSPRP is higher in “shrunken log2 fold change” value: -0.249 for the first, 0.266 for the second.

RRIRPRPPRLPRPRPRPVQGPRP and RRIRLRPPRLPRPRPRPYERPRP are within 0.2 log units of each other in “shrunken log2 fold change” value: -0.0469 for the first, -0.148 for the second.

RRIRHRPPRLPRPRPRPCLNPRP and RRIRLRPPRLPRPRPRPTVHPRP are within 0.2 log units of each other in “shrunken log2 fold change” value: -0.263 for the first, -0.131 for the second.

RRIRHRPPRLPRPRPRPHKLPRP and RRIRTRPPRLPRPRPRPVCMPRP are within 0.2 log units of each other in “shrunken log2 fold change” value: -0.279 for the first, -0.17 for the second.

With RRIRHRPPRLPRPRPRPSVWPRP the “shrunken log2 fold change” value was -0.151.
